Data from article PMC5806882, “Structural and biochemical characterization of the biuret hydrolase (BiuH) from the cyanuric acid catabolism pathway of Rhizobium leguminasorum bv. viciae 3841” (PLoS ONE, 2018).

Columns and labels:
[1] = biological target: the molecule itself; test: crystal structure; X-ray structures of BiuH and variants; sitting drops at 20 °C; SeMet SAD, variants by molecular replacement; homotetramer in the asymmetric unit
[2] = biological target: the molecule itself; test: SEC; Superdex 200 preparation grade, 130 mL column; 50 mM HEPES pH 7.5, 100 mM NaCl, later 50 mM Tris pH 7.5, 100 mM NaCl; elution compared with sizes expected for monomer, dimer, tetramer and octamer of BiuH

Protein | stoichiometry N [1] | stoichiometry N [2]
BiuH Cys175Ser (enzyme, Biuret hydrolase BiuH, Rhizobium leguminosarum bv. viciae 3841, UniProt Q1M7F4, with Cys175Ser; Crystallised without (6AZN) and with biuret (6AZQ); also called C175S; Cys175Ser BiuH variant; source: E. coli BL21 (λDE3), purified (Ni-NTA, SEC)) not shown | 4 | –
BiuH Lys142Ala with N-carbamoyl-D,L-aspartic acid (enzyme, acyl (thiocarbamate) covalent complex between the deaminated inhibitor N-carbamoyl-D,L-aspartic acid and Cys175, Biuret hydrolase BiuH, Rhizobium leguminosarum bv. viciae 3841, UniProt Q1M7F4, with Lys142Ala; also called K142A; Lys142Ala variant; source: E. coli BL21 (λDE3), purified (Ni-NTA, SEC)) not shown | 4 | –
BiuH wild type (biuret hydrolase from Rhizobium leguminosarum bv. viciae 3841) (enzyme, Biuret hydrolase BiuH, Rhizobium leguminosarum bv. viciae 3841; synthetic gene encoding a protein identical to UniProt Q1M7F4; Size exclusion followed Ni-NTA directly in the purification, so the tag was probably still on the protein; also called BiuH WT; biuret amidohydrolase; source: E. coli BL21 (λDE3), purified (Ni-NTA, SEC)) not shown | – | 4
SeMet BiuH wild-type (seleno-L-methionine biuret hydrolase from Rhizobium leguminosarum bv. viciae 3841) (enzyme, selenomethionine in place of methionine, Biuret hydrolase BiuH, Rhizobium leguminosarum bv. viciae 3841; synthetic gene encoding a protein identical to UniProt Q1M7F4; His-tag removed in situ with chymotrypsin, without further purification; also called biuret amidohydrolase; source: E. coli BL21 (λDE3), minimal medium with SeMet, purified (Ni-NTA, SEC); in situ chymotrypsin treatment in the crystallisation drop) not shown | 4 | –
BiuH Lys142His (enzyme, Biuret hydrolase BiuH, Rhizobium leguminosarum bv. viciae 3841, UniProt Q1M7F4, with Lys142His; also called K142H; source: E. coli BL21 (λDE3), purified (Ni-NTA, SEC)) not shown | 4 | –
